pKd: −log10 of the molar value.
Columns and labels:
TβRI ectodomain (human) [1] = target: TβRI ectodomain (human) (UniProt P36897); experiment: SEC-MALS
TβRI ectodomain (human) [2] = target: TβRI ectodomain (human) (UniProt P36897); experiment: ITC
[3] = target: biotinylated avi-tagged TβRI (human) (UniProt P36897); experiment: SPR
TβRII ectodomain (human) = TβRII ectodomain (human) (UniProt P37173); experiment: ITC
[4] = target: biotinylated avi-tagged TβRII (human) (UniProt P37173); experiment: SPR
Chain of biotinylated avi-tagged TβRII (human) (P37173 23-567): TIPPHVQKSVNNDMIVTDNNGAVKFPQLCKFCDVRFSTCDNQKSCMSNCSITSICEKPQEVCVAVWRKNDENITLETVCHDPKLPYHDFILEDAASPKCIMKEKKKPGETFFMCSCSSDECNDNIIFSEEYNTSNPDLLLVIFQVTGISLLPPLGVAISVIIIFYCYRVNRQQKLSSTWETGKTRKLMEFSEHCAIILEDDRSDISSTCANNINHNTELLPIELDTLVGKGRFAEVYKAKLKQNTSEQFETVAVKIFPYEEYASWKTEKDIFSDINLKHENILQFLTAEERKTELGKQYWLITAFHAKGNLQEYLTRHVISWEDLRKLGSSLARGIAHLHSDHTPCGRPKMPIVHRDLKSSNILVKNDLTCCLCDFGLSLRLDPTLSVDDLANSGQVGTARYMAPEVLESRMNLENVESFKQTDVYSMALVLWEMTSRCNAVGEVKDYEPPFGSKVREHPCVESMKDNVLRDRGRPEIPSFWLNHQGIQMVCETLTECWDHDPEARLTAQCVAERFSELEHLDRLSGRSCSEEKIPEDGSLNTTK

Chain of TβRII ectodomain (human) (P37173 23-166): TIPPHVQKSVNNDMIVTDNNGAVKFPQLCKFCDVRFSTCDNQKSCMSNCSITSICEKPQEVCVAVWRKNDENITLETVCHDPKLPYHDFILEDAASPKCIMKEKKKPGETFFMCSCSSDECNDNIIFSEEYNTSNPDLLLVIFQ
Chain of biotinylated avi-tagged TβRI (human) (P36897 34-503): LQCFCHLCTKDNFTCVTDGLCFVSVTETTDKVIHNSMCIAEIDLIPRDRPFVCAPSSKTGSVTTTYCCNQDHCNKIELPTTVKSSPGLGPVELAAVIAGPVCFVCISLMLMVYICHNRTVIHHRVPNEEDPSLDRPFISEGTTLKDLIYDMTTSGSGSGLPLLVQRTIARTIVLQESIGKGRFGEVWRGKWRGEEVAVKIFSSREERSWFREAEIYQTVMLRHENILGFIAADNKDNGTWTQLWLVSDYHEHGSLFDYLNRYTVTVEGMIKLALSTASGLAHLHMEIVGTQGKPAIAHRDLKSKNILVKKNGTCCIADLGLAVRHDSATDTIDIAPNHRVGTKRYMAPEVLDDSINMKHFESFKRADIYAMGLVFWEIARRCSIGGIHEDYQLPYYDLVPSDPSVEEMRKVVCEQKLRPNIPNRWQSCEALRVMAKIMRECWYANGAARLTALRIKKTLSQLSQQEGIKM
Chain of TβRI ectodomain (human) (P36897 34-126): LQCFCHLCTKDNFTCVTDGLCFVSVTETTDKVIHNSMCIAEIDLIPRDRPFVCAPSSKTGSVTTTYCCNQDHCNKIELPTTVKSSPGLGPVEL
Chain of TGF-β3:TβRII binary complex (P37173 whole entry, looked up, one chain of several): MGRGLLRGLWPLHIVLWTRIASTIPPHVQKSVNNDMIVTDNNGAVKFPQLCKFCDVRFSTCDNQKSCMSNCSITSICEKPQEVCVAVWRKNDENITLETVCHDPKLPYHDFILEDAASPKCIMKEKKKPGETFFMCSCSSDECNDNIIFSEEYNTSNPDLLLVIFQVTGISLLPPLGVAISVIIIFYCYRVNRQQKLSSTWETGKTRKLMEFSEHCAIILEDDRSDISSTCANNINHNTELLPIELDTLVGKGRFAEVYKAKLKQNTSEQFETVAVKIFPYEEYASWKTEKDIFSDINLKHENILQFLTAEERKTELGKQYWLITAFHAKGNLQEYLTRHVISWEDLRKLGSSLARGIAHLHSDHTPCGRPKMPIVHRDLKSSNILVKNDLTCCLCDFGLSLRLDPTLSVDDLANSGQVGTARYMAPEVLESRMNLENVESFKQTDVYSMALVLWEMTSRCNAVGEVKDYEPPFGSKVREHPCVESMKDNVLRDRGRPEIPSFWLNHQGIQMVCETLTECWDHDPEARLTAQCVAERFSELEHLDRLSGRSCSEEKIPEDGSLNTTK

| stoichiometry N (TβRI ectodomain (human) [1]) | pKd (TβRI ectodomain (human) [2]) | dH (TβRI ectodomain (human) [2]) [kcal/mol] | pKd [3] | pKd (TβRII ectodomain (human)) | dH (TβRII ectodomain (human)) [kcal/mol] | pKd [4] | Substance |
| --- | --- | --- | --- | --- | --- | --- | --- |
| 1 | 5.83 | -17.7 | 6.51 |  |  |  | TGM domain 2 (domain or fragment) |
|  | 7.21 | -4.21 |  |  |  |  | TGF-β3:TβRII binary complex (from UniProt P37173 23-166) |
|  | 7.28 | -16.7 | 7.88 | 6.26 | -7.14 | 6.21 | full-length TGM (TGF-β mimic of Heligmosomoides polygyrus) (natural protein) |
|  |  |  |  | 5.94 | -10.7 | 6.04 | TGM domain 3 (domain or fragment) |
|  | 7.60 | -18.7 | 4.62 |  |  |  | TGM domains 1 and 2 (domain or fragment) |

Source: doi:10.1101/2020.12.08.416701
